{
  "source": "the supplement of paper PMC9170038",
  "data": [
    {"tested_on": "MS2 coat protein", "test": "apparent KD of MS2 coat protein; higher = weaker reporter binding", "conditions": "Eterna round: R107; input ligand: theophylline 20 uM", "how_it_was_run": "(§1)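 Apparent KD per design is the median of normalised cluster binding-curve fits. Designed RNA switches transcribed on-chip from Illumina sequencing clusters were titrated with SNAP-549-labelled MS2 coat protein in twofold steps from 0.7 or 1.5 nM to 3 µM, with 0.8–1.5 h down to 10–20 min per step. Buffer: 100 mM Tris-HCl pH 7.5, 80 mM KCl, 4 mM MgCl2, without or with constant ligand.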", "units": {"apparent KD of MS2 coat protein": "nM"}, "values": [
      {"sequence": "ACGUAAUGCAGAAGGAGCGUCUUAUGUAUACAUGAGGAUCACCCAUGUAAUAUGUGGUUGAGACAGGUAGGUCGCUGAAGUACGA [JR_SSArginiB_Sub009]", "apparent KD of MS2 coat protein": 94.1},
      {"sequence": "CUAUAUAUAGCGGCCGCCACUUACUCAUGAGGUAACAACAUGAGGAUCACCCAUGUUUGAGGAUCAAGGACCGGGCUAUAUAUAG [AstrosSSTryB#4]", "apparent KD of MS2 coat protein": 33.5},
      {"sequence": "UAUCCACAUGAGGAUCACCCAUGUUAGGAAGGAGCGGUGAAUGAACCAGGUAGGUCGCCUAGCUGAGGACCAUCGAUGGAUUCGU [Exclusion - Arginine A (Freestyle 15)]", "apparent KD of MS2 coat protein": 25.5},
      {"sequence": "CGGUAGGUAGGUCGAUAUCUACCCGUAGAAGGAGCGUAAGAAAAUACAGGUAGGUCGCUACGGAACAUGAGCAUCAGCCAUGUCC [SSArg A #12-Alt Ms2]", "apparent KD of MS2 coat protein": 20.6},
      {"sequence": "AGUCUUAAUGGAAGGAGCGCAGUCAUAACAUGAGGAUCACCCAUGUCGAGGUGAGGGUCAUUGCAGGUAGGUCGCCAUACUAAGA [Same State - Arginine B (Freestyle 3)]", "apparent KD of MS2 coat protein": 220},
      {"sequence": "GGGCGCUAUCCCGCGAGGGAUAGCGUUCGGCGAGGACCGGUACGGCCGCCACUCGAACGAGUGGGUACAUGAGGAUCACCCAUGU [Faa]", "apparent KD of MS2 coat protein": 39.6},
      {"sequence": "AUAUAUAUAUAGAAAUAUAUAUAUAUGUAACGAGGACCGGUACGGCCGCCACUCGUGCCGGUGAUAACAUGAGGAUCACCCAUGU [Ex_TrypA - Every engine approves!]", "apparent KD of MS2 coat protein": 20.9},
      {"sequence": "UGUAUGUGAUUUGAUACCAGACCAGCUGGUGGUACACGAGGAUCACCCGUGUAGGUUUGGGUCCCUUGGCAGCAAAUCGCAUACU [SS Theo B #24 Ms3]", "apparent KD of MS2 coat protein": 68.7},
      {"sequence": "AUUAAUUUAUUUCUCAAUUUAAUUUCAGAAGGAGCGUGAUGUUUCACAGGUAGGUCGCUGUUUACAUGAGGAUCACCCAUGUUUU [JR_SSArginiA_Sub004]", "apparent KD of MS2 coat protein": 44.4},
      {"sequence": "UUAAUCAUUGAUGAAAACAUUAAUGCAGAAGGAGCGUGAUAAAACACAGGUAGGUCGCUGAAGGGAACAUGAGGAUCACCCAUGU [AstrosSSArgA#16]", "apparent KD of MS2 coat protein": 36.5},
      {"sequence": "AAUAAUAAGGCGGCCGCCACUAAACAUGAGGAUCACCCAUGUCUCGAGGGCUUGCGUUGGGAAAGUAGGACCGGGCCAAUAAUAA [Exclusion - Tryptophan B (Freestyle 7)]", "apparent KD of MS2 coat protein": 20.5},
      {"sequence": "GAUAUGGAAACAUGUCAGAUCCUUACCGGUCGAGGACCGGUACGGCCGCCACUCGGAAAUAUUGUACAUGAGGAUCACCCAUGUA [Ex Tryptophan A 18]", "apparent KD of MS2 coat protein": 16.1},
      {"sequence": "GCUAUGGCUGGAAGGAGCGUGAAUUUCAGCGAACAUGAGGAUCACCCAUGUAAGGAUAUGGCACAGGUAGGUCGCUAGCCAUAGC [#19 Same State - Arginine B]", "apparent KD of MS2 coat protein": 21.2},
      {"sequence": "GCUGCCAUACGAAGGAGCGCUGCUGCGAUGUGGCGAACAUGAGGAUCACCCAUGUGGCAGCGGCAGGUAGGUCGCGUAUGGCAGC [#02 Exclusion - Arginine B]", "apparent KD of MS2 coat protein": 330},
      {"sequence": "AAAGUUGAUGAGUUGUGUUUGUGUUCGGAAGGAGCGGGAAUUAUCUCAGGUAGGUCGCCGAACAUGAGGAUCACCCAUGUAUAAA [XArg-A 18 NuV2 original #dotplot2>1]", "apparent KD of MS2 coat protein": 80.1},
      {"sequence": "UCAAGUGAACCAUGGAAACAUUCAAUAGAUACCAGCAUUAAAACCUGCCCUUGGCAGCUAUGAACAUGAGGAUCACCCAUGUGAA [theeternabot_exclusion_MS2_Theo_A_21]", "apparent KD of MS2 coat protein": 23.3},
      {"sequence": "UAAUGCAGGUCGGCCGCCACUACAAACAUGAGGAUCACCCAUGUAGUUACUGGGUGAAGUGGCAGUAGGACCGGGACCUGCAUAA [Trp-Ms2-T'-M'-T''_Design1]", "apparent KD of MS2 coat protein": 602},
      {"sequence": "GACAUGAGGAUCGAUACCAGCGACAUGAGGAUCACAUGAGGAUCACCCAUGUGUAGUAUACGCCCUUGGCAGCGAACAUGAGGAU [Same State Theophylline B 3]", "apparent KD of MS2 coat protein": 71.2},
      {"sequence": "UAAACUACACAUGAGGAUCACCCAUGUGGCCGAGGACCGGUACGGCCGCCACUCGUGUGUUAAUAAAAGAACUGCAAAGUUCCUU [Aquen]", "apparent KD of MS2 coat protein": 416},
      {"sequence": "UGUAUGUGAUCUGAUACCAGUCCAACUGGUAAAGCGUGAGGAUCACCCAUGCAAAAUUGGGACCCUUGGCAGCAGAUCGCAUACU", "apparent KD of MS2 coat protein": 290}
    ]},
    {"tested_on": "MS2 coat protein", "test": "apparent KD of MS2 coat protein; higher = weaker reporter binding", "conditions": "Eterna round: R107; input ligand: theophylline 2 mM", "how_it_was_run": "as §1", "units": {"apparent KD of MS2 coat protein": "nM"}, "values": [
      {"sequence": "AAUAAUCUAGGUGAUACCAGCUCAACAUGAGGAUCACCCAUGUGCUCAUGAAGAGCUGAGAGCCCUUGGCAGCACCUAGAUAAUA [(Theo1)-(Ms2)-(M)'-(T)'-(Theo2)_Design2]", "apparent KD of MS2 coat protein": 28.5},
      {"sequence": "AUGCAUAGCACGGCCGCCACUCCAUGUAAACAUGAGGAUCACCCAUGUAAUUUGGAUGUUUUAUAGAGGACCGGGUGAAAUGCAA [JR_ExcTryptoB_Sub004]", "apparent KD of MS2 coat protein": 10.3},
      {"sequence": "UAACAUGAGGAUCACCCAUGUAUACUAAGUCGAGGACCGGUACGGCCGCCACUCGAAAUUGAAGAAUUGGCGGUAAAUGUAAGUA [JR_ExcTryptoA_Sub019]", "apparent KD of MS2 coat protein": 14.3},
      {"sequence": "GGACAUGCAGGAAGGAGCGACACAGCAGAAACUGCAAAUCCUCCACACGAGGAUCACCCGUGUCAGGUAGGUCGCCUGCAUGUCG [ArgXB 14 #Zipper #MS2Left #StaticStem #Blueprint]", "apparent KD of MS2 coat protein": 126},
      {"sequence": "GGAUAGGACACGGCCGCCACUACCUAGGAUACUAGCAACAUUUGGGUGCACGAGGAUCACCCGUGUAGGACCGGGUGUCCUAUCG", "apparent KD of MS2 coat protein": 102},
      {"sequence": "GACCGAUUAUAGUGCGAUUCUCUUGUGGAAGGAGCGCAGAGGACUGCAGGUAGGUCGCCACAUGAGGAUCACCCAUGUCAGGAUA [Esxebiat]", "apparent KD of MS2 coat protein": 708},
      {"sequence": "CAGGUGGACUGAAGGAGCGAGUCAGGGACUUACAUGAGGAUCACCCAUGUCACGGUCGUCACUCAGGUAGGUCGCAGUUCGCCUC [Diinan]", "apparent KD of MS2 coat protein": 628},
      {"sequence": "UAACAUGAGGAUCACCCAUGUAUACUUAGUCGAGGACCGGUACGGCCGCCACUCGUACUUCAAGAUUUGGCGGAAAAUGUAUGUA [JR_ExcTryptoA_Sub021]", "apparent KD of MS2 coat protein": 12.5},
      {"sequence": "AAUAAGAUCCUCAUGUGAGUCGUACCAUAACGAGGACCGGUACGGCCGCCACUCGAACAUGAGGAUCACCCAUGUAGGUACGACA [M'-T'-T-MS2-T'' - Design 8]", "apparent KD of MS2 coat protein": 882},
      {"sequence": "GGGAGGGAGGCGGCCGCCACUGAUUUUCAUAUAUAUAUAACAUGAGGAUCACCCAUGUAGAUAUGCAGGACCGGGCCUUUUUUUU [aaaI]", "apparent KD of MS2 coat protein": 19.1},
      {"sequence": "ACAGGUACGCCUAUUAAAAUAAAACACCUACGAGGACCGGUACGGCCGCCACUCGGGUGACAUGAGGAUCACCCAUGUGGCUAAA [Ceeron]", "apparent KD of MS2 coat protein": 851},
      {"sequence": "GGUUGAAACUGAAGGAGCGAGAUCACAAGAUUGGGUCUAACAUGAGGAUCACCCAUGUAAUCUCAGGUAGGUCGCAGUGACCAAA [Exclusion Arginine B GF 13]", "apparent KD of MS2 coat protein": 51.7},
      {"sequence": "CCUAUGCAGUCGGCCGCCACUGAAAACAGCCUCAAAAUAAAUAUAACAUGAGGAUCACCCAUGUACAGGACCGGGACUGUAUAGG [Ex Tryptophan B 11]", "apparent KD of MS2 coat protein": 180},
      {"sequence": "UGGGUAGAAUAGAUAGAUAGAUAAACUGAAGGAGCGAGAAUAAACUCAGGUAGGUCGCAGACAUGAGGAUCACCCAUGUAGAUGG [Same State Arginine A GF15]", "apparent KD of MS2 coat protein": 163},
      {"sequence": "AUAUAUACAUGAGGAUCACCCAUGUUAUUUCGAGGACCGGUACGGCCGCCACUCGAUAGAGUAGAAGUAAAUUUUAAUUCAUGUA [JR_SSTryptoA_Sub008]", "apparent KD of MS2 coat protein": 16.8},
      {"sequence": "GGACUAACCAGAAGGAGCGACACGCAGAAACUGCAAAUUCCUCCACACGAGGAUCACCCGUGUCAGGUAGGUCGCUGGUUAGUCG", "apparent KD of MS2 coat protein": 28.4},
      {"sequence": "ACGUAAUGCAGAAGGAGCGUCUUAUGUAUACAUGAGGAUCACCCAUGUAAUAUGUGGUUGAGACAGGUAGGUCGCUGAAGUACGA [JR_SSArginiB_Sub009]", "apparent KD of MS2 coat protein": 78.4},
      {"sequence": "CUAUAUAUAGCGGCCGCCACUUACUCAUGAGGUAACAACAUGAGGAUCACCCAUGUUUGAGGAUCAAGGACCGGGCUAUAUAUAG [AstrosSSTryB#4]", "apparent KD of MS2 coat protein": 33.2},
      {"sequence": "UAUCCACAUGAGGAUCACCCAUGUUAGGAAGGAGCGGUGAAUGAACCAGGUAGGUCGCCUAGCUGAGGACCAUCGAUGGAUUCGU [Exclusion - Arginine A (Freestyle 15)]", "apparent KD of MS2 coat protein": 27.5},
      {"sequence": "CGGUAGGUAGGUCGAUAUCUACCCGUAGAAGGAGCGUAAGAAAAUACAGGUAGGUCGCUACGGAACAUGAGCAUCAGCCAUGUCC [SSArg A #12-Alt Ms2]", "apparent KD of MS2 coat protein": 12.1},
      {"sequence": "AGUCUUAAUGGAAGGAGCGCAGUCAUAACAUGAGGAUCACCCAUGUCGAGGUGAGGGUCAUUGCAGGUAGGUCGCCAUACUAAGA [Same State - Arginine B (Freestyle 3)]", "apparent KD of MS2 coat protein": 265}
    ]}
  ]
}
